# Assay results as given in publication PMC8041869.
# How the values were obtained:
# [1] = molecular target: SARS-CoV-2 S-protein receptor-binding domain (SARS-CoV-2) (UniProt P0DTC2); experiment: BLI
# [2] = molecular target: SARS-CoV-2 S-protein receptor-binding domain (SARS-CoV-2) (UniProt P0DTC2); experiment: ELISA
substance,measurement,setting,value
"human ACE2 extracellular domain, E37K variant, Fc-tagged dimeric form (from UniProt Q9BYF1-1 18-615) (Fc fusion)",Kd,[1],22.7 nM
same,EC50,[2],15.8 nM
